In patent US20240209100A1 (DIAGONAL THERAPEUTICS, published 2024):
One block for each binder: values may come before it.

Key:
human IL-18Rβ = target: T1, human IL-18Rβ (human, UniProt O95256 20-356, limits assumed); assay: SPR (Carterra LSA), antibody captured on anti-human IgG-Fc, monomeric antigen as analyte, 25 C
T1 construct: Monomeric antigen injected in SPR; also called IL-18R beta; IL-18Rb
T1 sequence: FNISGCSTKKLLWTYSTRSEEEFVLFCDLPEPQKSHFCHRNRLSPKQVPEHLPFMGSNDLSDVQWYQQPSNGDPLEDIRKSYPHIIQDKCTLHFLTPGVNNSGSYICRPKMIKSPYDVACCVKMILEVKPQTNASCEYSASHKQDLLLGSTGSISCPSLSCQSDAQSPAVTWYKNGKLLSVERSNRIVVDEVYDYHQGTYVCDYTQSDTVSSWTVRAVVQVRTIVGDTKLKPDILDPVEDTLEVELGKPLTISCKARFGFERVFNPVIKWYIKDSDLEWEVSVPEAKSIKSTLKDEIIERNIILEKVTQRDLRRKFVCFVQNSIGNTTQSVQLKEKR
Method: (§1) SPR experiments were performed using Carterra LSA equipped with an HC30M chip (Carterra-Bio). Binding assays were carried out at 25° C. with HBSTE (10 mM HEPES ph7.4, 150 mM NaCl, 3 mM EDTA, 0.05% Tween-20) with 0.5 g/L BSA. A density of anti-human IgG-Fc capture lawn was established on an HC30M chip using amine coupling. […] Coupling of goat anti-human IgG (H+L) multi-species SP ads-UNLB (Southern Biotech, 2087-01) with standard immobilization was done for 15 minutes in 10 mM sodium acetate pH 4.5 and quenched using 1M ethanolamine HCl PH8.5. The anti-human IgG-Fc capture surface was then used to capture a panel of antibodies at 20 μg/mL. Monomeric antigen for human IL-18Rα, human IL-18Rβ, cynomolgus IL-18Rα, or rhesus IL-18Rβ targeted by the antibodies was injected over the captured antibody array at 6 concentrations in 4-fold dilution series starting at 500 nM. Binding data was referenced and blanked from a buffer injected, then globally fit to a 1:1 Langmuir binding model for estimation of ka, kd, and KD using Carterra Kinetics Software.

[1] = target: T2, IL-18 receptor (IL-18Rα/IL-18Rβ) overexpressed on HEK-Blue IL-18 cells (Homo sapiens (Human), UniProt Q13478 19-541; O95256 20-599); assay: cell-based or functional assay
T2 sequence 1: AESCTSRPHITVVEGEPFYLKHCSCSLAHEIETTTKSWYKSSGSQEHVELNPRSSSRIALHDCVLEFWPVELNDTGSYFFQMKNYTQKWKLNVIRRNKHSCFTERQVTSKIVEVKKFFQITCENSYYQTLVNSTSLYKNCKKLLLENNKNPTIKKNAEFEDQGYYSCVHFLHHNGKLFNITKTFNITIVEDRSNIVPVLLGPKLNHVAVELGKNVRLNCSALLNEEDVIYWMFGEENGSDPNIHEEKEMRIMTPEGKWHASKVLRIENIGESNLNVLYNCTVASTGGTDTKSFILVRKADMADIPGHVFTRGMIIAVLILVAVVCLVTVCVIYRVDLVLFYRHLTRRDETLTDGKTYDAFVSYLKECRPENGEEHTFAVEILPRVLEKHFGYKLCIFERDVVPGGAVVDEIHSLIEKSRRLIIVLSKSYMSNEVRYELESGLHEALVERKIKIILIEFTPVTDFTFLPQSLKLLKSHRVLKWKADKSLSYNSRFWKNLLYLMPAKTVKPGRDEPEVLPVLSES
T2 sequence 2: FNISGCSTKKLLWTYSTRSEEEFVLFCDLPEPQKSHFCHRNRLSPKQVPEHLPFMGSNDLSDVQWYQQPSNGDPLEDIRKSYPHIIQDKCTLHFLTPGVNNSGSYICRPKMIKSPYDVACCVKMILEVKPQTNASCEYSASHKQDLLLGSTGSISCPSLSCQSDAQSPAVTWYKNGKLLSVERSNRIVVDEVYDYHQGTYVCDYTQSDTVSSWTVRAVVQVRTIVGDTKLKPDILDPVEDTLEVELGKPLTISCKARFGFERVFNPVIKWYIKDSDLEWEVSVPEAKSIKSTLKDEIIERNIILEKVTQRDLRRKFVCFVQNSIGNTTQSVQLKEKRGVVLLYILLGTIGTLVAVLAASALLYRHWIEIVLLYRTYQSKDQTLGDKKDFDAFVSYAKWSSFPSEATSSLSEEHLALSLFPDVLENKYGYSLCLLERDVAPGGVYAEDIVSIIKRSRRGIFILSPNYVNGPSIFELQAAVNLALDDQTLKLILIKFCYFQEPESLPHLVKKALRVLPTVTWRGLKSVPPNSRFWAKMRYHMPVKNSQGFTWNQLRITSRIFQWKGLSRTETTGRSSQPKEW

cynomolgus IL-18Rα = target: T3, cynomolgus IL-18Rα (cynomolgus, UniProt A0A2K5V3J9 19-328); assay: SPR (Carterra LSA), antibody captured on anti-human IgG-Fc, monomeric antigen as analyte, 25 C
T3 construct: also called Cyno IL-18Rα; non-human primate IL-18Rα
T3 sequence: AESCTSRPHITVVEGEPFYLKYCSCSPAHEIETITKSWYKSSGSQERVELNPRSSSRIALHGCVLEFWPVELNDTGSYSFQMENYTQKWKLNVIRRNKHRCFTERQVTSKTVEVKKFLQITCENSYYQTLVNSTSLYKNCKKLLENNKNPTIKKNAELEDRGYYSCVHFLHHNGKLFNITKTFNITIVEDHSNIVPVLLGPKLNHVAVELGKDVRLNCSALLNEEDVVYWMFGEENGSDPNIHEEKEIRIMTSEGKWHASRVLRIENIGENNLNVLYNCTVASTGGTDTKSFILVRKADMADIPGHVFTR
Method: as §1

human IL-18Rα = target: T4, human IL-18Rα (human, UniProt Q13478 19-329, limits assumed); assay: as above
T4 construct: Monomeric antigen injected in SPR; also called huIL18Ra; IL-18R alpha
T4 sequence: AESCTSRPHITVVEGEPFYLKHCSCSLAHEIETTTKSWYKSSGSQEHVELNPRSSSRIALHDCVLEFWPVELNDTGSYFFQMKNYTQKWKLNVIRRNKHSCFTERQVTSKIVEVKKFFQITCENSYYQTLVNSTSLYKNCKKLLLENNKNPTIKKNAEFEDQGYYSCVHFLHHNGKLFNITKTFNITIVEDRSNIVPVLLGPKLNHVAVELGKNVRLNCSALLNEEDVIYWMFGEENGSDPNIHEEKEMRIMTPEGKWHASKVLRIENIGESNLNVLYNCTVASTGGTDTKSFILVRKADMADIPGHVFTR
Method: as §1

[2] = target: T2, IL-18 receptor (IL-18Rα/IL-18Rβ) …; assay: cell-based or functional assay; remark: listed apart in the source

Kd (human IL-18Rβ): 1.6 nM
B1: VHH505 (VHH)
VHH: QLQLVESGGGLVQAGGSLRLSCAASRSITFSHNVMGWYRQAPGKQRELVASIGSGGSTNYVDSVKGRATISRDNAKKTVYLQMNSLKPEDTAVYYCGVVVGVYRGSLGQGTQVTVSS
notes: also called VHH505_beta

Kd (cynomolgus IL-18Rα): 14 nM
Kd (human IL-18Rα): 15 nM
B3: VHH285 (VHH)
VHH: QVQLVESGGGLVQAGGSLRLSCAASGRTFSKHAMGWFRQAPGKEREFVAAIDWSGGSTYYADSVKGRFTISRDNAKNTVYLQMDSLKPEDTAVYYCAADSYTDYAQLWLPELESEYDYWGQGTQVTVSS
notes: also called VHH285_alpha

Kd (cynomolgus IL-18Rα): 95 nM
Kd (human IL-18Rα): 34 nM
B7: VHH363 (VHH)
VHH: QVQLVESGGGLVQAGGSLRLSCAASGRTFSSYTMGWFRQAPGKEREFVAAISWSAGRTYYADSVKGRFTISRDNAKNTVYLQMNSLKPEDTAVYFCAAEEAPDWAPIDCSGYGCLSLYDYWGQGTQVTVSS
notes: also called VHH363_alpha

More lines, now with the values behind:

B2: DGL023 (bispecific antibody, human IgG1, kappa, L234A L235A)
heavy 1: EVQLVESGGGLVQPGGSLRLSCAASGFTRSYYTIAWFRQAPGKEREGISCIRNTDGSTVVSDSVEGRFTISRDNAKNTVFLQMNSLKTEDTAVYYCAARNDRYGGLCSVRHNYEYWGQGTQVTVSSDKTHTCPPCPAPEAAGGPSVFLFPPKPKDTLMISRTPEVTCVVVDVSHEDPEVKFNWYVDGVEVHNAKTKPREEQYNSTYRVVSVLTVLHQDWLNGKEYKCKVSNKALPAPIEKTISKAKGQPREPQVCTLPPSRDELTKNQVSLSCAVKGFYPSDIAVEWESNGQPENNYKTTPPVLDSDGSFFLVSKLTVDKSRWQQGNVFSCSVMHEALHNHYTQKSLSLSPG
heavy 2: not shown
light: DIQMTQSPSSLSASVGDRVTITCQATEDIESFLAWYQQKPGQAPKLLIYRASTLESGVPSRFSGSGSGTDFTLTISSLQPEDFATYYCQSTVYGVNFVANAFGGGTKVVIKRTVAAPSVFIFPPSDEQLKSGTASVVCLLNNFYPREAKVQWKVDNALQSGNSQESVTEQDSKDSTYSLSSTLTLSKADYEKHKVYACEVTHQGLSSPVTKSFNRGEC
HEK-Blue IL-18: Emax (Abs at 630 nm) at 10^8 (average of two replicates) [1]: 0.37 Abs at 630 nm

B4: DGL333 (bispecific antibody)
heavy 1: EVQLLESGGGLVQPGGSLRLSCAASGRTFSKHAMGWFRQAPGKGLEFVSAIDWSGGSTYYADSVKGRFTISRDNSKNTVYLQMNSLRAEDTAVYYCAADSYTDYAQLWLPELESEYDYWGQGTLVTVSSCPPCPAPEAAGAPSVFLFPPKPKDTLYITREPEVTCVVVDVSHEDPEVKFNWYVDGVEVHNAKTKPREEQYNSTYRVVSVLTVLHQDWLNGKEYKCKVSNKALPAPIEKTISKAKGQPREPQVCTLPPSRDELTKNQVSLSCAVKGFYPSDIAVEWESNGQPENNYKTTPPVLDSDGSFFLVSKLTVDKSRWQQGNVFSCSVMHEALHNHYTQKSLSLSPG
heavy 2: QLQLLESGGGLVQPGGSLRLSCAASRSITFSHNVMGWYRQAPGKGRELVSSIGSGGSTNYVDSVKGRFTISRDNSKKTLYLQMNSLRAEDTAVYYCGVVVGVYRGSLGQGTLVTVSSCPPCPAPEAAGAPSVFLFPPKPKDTLYITREPEVTCVVVDVSHEDPEVKFNWYVDGVEVHNAKTKPREEQYNSTYRVVSVLTVLHQDWLNGKEYKCKVSNKALPAPIEKTISKAKGQPREPQVYTLPPCRDELTKNQVSLWCLVKGFYPSDIAVEWESNGQPENNYKTTPPVLDSDGSFFLYSKLTVDKSRWQQGNVFSCSVMHEALHNHYTQKSLSLSPG
EC50 (read off the curve), HEK Blue IL-18 SEAP reporter [2]: ~6 nM

B5: DGL012 (bispecific antibody, human IgG1, kappa, L234A L235A)
heavy 1: EVQLVESGGGLVQAGGSLRLSCAASGRTFSDARMGWFRQAPGRERELIAFISWFGSNTNYGSSVKGRFTISRDNTKNTVYLQMNSLKLEDTAVYYCAACRQSICIDSAEYFDDWGQGTQVTVSSDKTHTCPPCPAPEAAGGPSVFLFPPKPKDTLMISRTPEVTCVVVDVSHEDPEVKFNWYVDGVEVHNAKTKPREEQYNSTYRVVSVLTVLHQDWLNGKEYKCKVSNKALPAPIEKTISKAKGQPREPQVCTLPPSRDELTKNQVSLSCAVKGFYPSDIAVEWESNGQPENNYKTTPPVLDSDGSFFLVSKLTVDKSRWQQGNVFSCSVMHEALHNHYTQKSLSLSPG
heavy 2: not shown
light: DIQMTQSPSSLSASVGDRVTITCQASESIDNWLAWYQQKPGQAPKLLIYSASNLASGVPSRFSGSGSGTDFTLTISSLQPEDFATYYCQSTFYGVNPVPNAFGQGTKVVIKRTVAAPSVFIFPPSDEQLKSGTASVVCLLNNFYPREAKVQWKVDNALQSGNSQESVTEQDSKDSTYSLSSTLTLSKADYEKHKVYACEVTHQGLSSPVTKSFNRGEC
HEK-Blue IL-18: Emax (Abs at 630 nm) at 10^8 (average of two replicates) [1]: 0.28 Abs at 630 nm

B6: DGL020 (bispecific antibody, human IgG1, kappa, L234A L235A)
heavy 1: EVQLVESGGGLVQAGGSLRLSCAASGRTFSDARMGWFRQAPGRERELIAFISWFGSNTNYGSSVKGRFTISRDNTKNTVYLQMNSLKLEDTAVYYCAACRQSICIDSAEYFDDWGQGTQVTVSSDKTHTCPPCPAPEAAGGPSVFLFPPKPKDTLMISRTPEVTCVVVDVSHEDPEVKFNWYVDGVEVHNAKTKPREEQYNSTYRVVSVLTVLHQDWLNGKEYKCKVSNKALPAPIEKTISKAKGQPREPQVCTLPPSRDELTKNQVSLSCAVKGFYPSDIAVEWESNGQPENNYKTTPPVLDSDGSFFLVSKLTVDKSRWQQGNVFSCSVMHEALHNHYTQKSLSLSPG
heavy 2: not shown
light: DIQMTQSPSSLSASVGDRVTITCQATEDIESFLAWYQQKPGQAPKLLIYRASTLESGVPSRFSGSGSGTDFTLTISSLQPEDFATYYCQSTVYGVNFVANAFGGGTKVVIKRTVAAPSVFIFPPSDEQLKSGTASVVCLLNNFYPREAKVQWKVDNALQSGNSQESVTEQDSKDSTYSLSSTLTLSKADYEKHKVYACEVTHQGLSSPVTKSFNRGEC
HEK-Blue IL-18: Emax (Abs at 630 nm) at 10^8 (average of two replicates) [1]: 0.37 Abs at 630 nm
